Data taken from patent US20200277399A1.

How the values were obtained:
2F5 antibody [1] = assay: ELISA on coated 2F5; Fc variant 1.11111111 ug/ml
2F5 antibody [2] = assay: ELISA on coated 2F5; Fc variant 0.37037037 ug/ml
2F5 antibody [3] = assay: ELISA on coated 2F5; Fc variant 3.33333333 ug/ml
2F5 antibody [4] = assay: ELISA on coated 2F5; Fc variant 0.00457247 ug/ml
2F5 antibody [5] = assay: ELISA on coated 2F5; Fc variant 0.04115226 ug/ml
2F5 antibody [6] = assay: ELISA on coated 2F5; Fc variant 0.01371742 ug/ml
2F5 antibody [7] = assay: ELISA on coated 2F5; Fc variant 10 ug/ml
2F5 antibody [8] = assay: ELISA on coated 2F5; Fc variant 0.12345679 ug/ml

| Substance | absorbance (2F5 antibody [1]) | absorbance (2F5 antibody [2]) | absorbance (2F5 antibody [3]) | absorbance (2F5 antibody [4]) | absorbance (2F5 antibody [5]) | absorbance (2F5 antibody [6]) | absorbance (2F5 antibody [7]) | absorbance (2F5 antibody [8]) |
| --- | --- | --- | --- | --- | --- | --- | --- | --- |
| Fc_ELDKWA_DE (from UniProt P0DOX5 227-449) | 0.495 | 0.185 | 0.846 | 0.0177 | 0.038 | 0.0283 | 1.25 | 0.0673 |
| Fc_ELDKWA_BC (from UniProt P0DOX5 227-449) | 0.091 | 0.047 | 0.232 | 0.0133 | 0.0197 | 0.0107 | 0.619 | 0.0213 |
| Fc_ELDKWA_FG (from UniProt P0DOX5 227-449) | 0.706 | 0.297 | 1.32 | 0.012 | 0.0365 | 0.0215 | 1.4 | 0.108 |
